In PMC2175354:

Key:
Assay in all cases: EMSA
MyoD R111C = MyoD R111C (Mus musculus, UniProt P10085 1-318, R111C)
MyoD full-length = MyoD full-length (Mus musculus, UniProt P10085 1-318)
[1] = molecular target: MyoD Δ1-93 (activation and C/H regions deleted) (Mus musculus, UniProt P10085 94-318, del1-93)
MyoD Δ102-114 = MyoD Δ102-114 (UniProt P10085 1-318, del102-114)
MyoD ΔR1R3 = MyoD ΔR1R3 (Mus musculus, UniProt P10085 1-318, del102-104;del119-121)
MyoD ΔR1R2R3 = MyoD ΔR1R2R3 (Mus musculus, UniProt P10085 1-318, del102-104;del110-112;del119-121)
[2] = molecular target: MyoD Δ3-56 (activation region deleted) (Mus musculus, UniProt P10085 1-318, del3-56)
MyoD bHLH domain = MyoD bHLH domain (UniProt P10085 102-162)
MyoD ΔR2R3 = MyoD ΔR2R3 (Mus musculus, UniProt P10085 1-318, del110-112;del119-121)
MyoD ΔR3 = MyoD ΔR3 (Mus musculus, UniProt P10085 1-318, del119-121)
[3] = molecular target: MyoD Δ1-121 (activation, C/H and basic regions deleted) (Mus musculus, UniProt P10085 122-318, del1-121)

B1: E-box DNA (dsDNA)
DNA 1: TCGATCCCCCAACACCTGCTGCCTGA
DNA 2: TCAGGCAGCAGGTGTTGGGGGATCGA
binding result (MyoD R111C): no binding | binding result (MyoD full-length): binds | binding result [1]: binds | binding result (MyoD Δ102-114): no binding | binding result (MyoD ΔR1R3): no binding | binding result (MyoD ΔR1R2R3): no binding | binding result [2]: binds | binding result (MyoD bHLH domain): binds | binding result (MyoD ΔR2R3): no binding | binding result (MyoD ΔR3): no binding | binding result [3]: no binding
